PMC5487319 (Scientific Reports, 2017)
Blank lines part the entries; values can stand above or below the molecule they belong to. Where a SMILES comes first, the peptide text is derived from it. The star is where a group is joined. HYNIC = NNc1ccc(C(=O)*)cn1

Key:
in vivo = settings: male, BALB/c-nude, mouse, iv, 11.1 MBq, total radioactivity
Method: (§1) Five-week-old male BALB/c-nude mice were used for preparation of the xenograft tumor models. An A549 lung carcinoma-bearing model was established by subcutaneous injection of A549 cells at a concentration of 5 × 10^6 cells/mouse into the right front flank of the mice.
(§2) SPECT planar imaging was performed when the tumor volume was approximately 1 cm^3. The mice were anesthetized and placed in a supine position. Planar imaging was performed using a low-energy collimator at an energy peak of 140 keV at the indicated time after ^99mTc-labeled peptide (11.1 MBq, 150 μL) injection. The main imaging acquisition parameters were as follows: 128 × 128 matrix, window-width 20%, zoom 2.0, acquisition time 10 min. […] Then, 100,000 counts were acquired per image at each time indicated after the injection. For the blocking study, an excessive amount of HYNIC-peptide or EC-peptide (500 μg/mouse) was injected 30 min prior to radiolabeled peptide injection.

[1] = test system: A549 tumor-bearing nude mice; test: SPECT planar imaging; settings: intravenous administration, 2 hour
Method: as §1, §2

A549 xenograft tumors = test: Therapeutic evaluation of ^188Re-peptides on A549 tumors; type: in vivo, mice; settings: 18.5 MBq i.v. at the first and seventh day
Method: Sixty mice were randomly separated into 6 groups once the tumor volumes reached approximately 0.1 cm^3: saline group, ^188ReO4 ^− group (18.5 MBq), non-labeled peptide group (4 μg per mouse) and ^188Re-labeled peptide group (18.5 MBq, 4 μg peptide per mouse) (n = 10). All drugs were administered i.v at the first and seventh day. Tumor size was determined weekly by measuring the length, width, and depth of the tumor using a caliper. Tumor volume was calculated as follows: tumor volume = (length × width × depth) × π/6. The mice were abandoned once dead or body weight loss was more than 20%.
At the end of the therapeutic period, mice were sacrificed, and the tumors were collected and fixed in 4% paraformaldehyde (PFA). Routine hematoxylin and eosin (H&E) staining and TdT-mediated dUTP nick-end labeling (TUNEL) staining were performed for necrosis and apoptosis analysis according to the manufacturer’s instructions.

VEGFR-1 = VEGFR-1 (Homo sapiens, UniProt P17948); test: Co-immunoprecipitation of GST-peptide and VEGFR-1; type: binding; settings: A549 cells, GST-peptide 80 or 185 nmol/L, 12 h, anti-GST or anti-VEGFR-1 antibody, Western blot
Method: GST-peptide was prepared and purified as previously described. Briefly, pGEX4T-1-peptide plasmid was obtained by peptide gene insertion into pGEX4T-1. Then, the plasmids were transfected into E. coli BL21 (DE3)-competent cells. Subsequently, GST-peptide fusion proteins were collected and purified by Glutathione Sepharose 4B. The obtained proteins were identified by protein electrophoresis.
A549 cells were seeded in 75 cm^2 bottles (1 × 10^4 counts/mL). After 24 h, GST-QKRKRKKSRKKH (80 nmol/L) or GST–RKRKRKKSRYIVLS (185 nmol/L) protein was added, respectively. After 12 h, the culture medium was removed and the cells were washed by PBS and then spalled with IP lysis buffer containing protease inhibitor (4 °C, 30 min). The protein concentration was determined with BCA methods. Protein (600 μg) from supernatant was used for immunoprecipitation (IP) assays with 1 μg anti-GST antibody or 1 μg anti-VEGFR-1 antibody in a reversed Co-IP experiment, while IgG served as the negative group. After washing 3× by TBST, IgG-HRP was added, shaking 2 h at RT, and last for enhanced chemiluminescence imaging.

VEGFR = VEGFR (UniProt P17948 27-1338); test: radioligand binding; receptor competition binding with 125I-VEGF165, peptide concentration varied; details in ref. 28
Sequence of VEGFR (P17948 27-1338): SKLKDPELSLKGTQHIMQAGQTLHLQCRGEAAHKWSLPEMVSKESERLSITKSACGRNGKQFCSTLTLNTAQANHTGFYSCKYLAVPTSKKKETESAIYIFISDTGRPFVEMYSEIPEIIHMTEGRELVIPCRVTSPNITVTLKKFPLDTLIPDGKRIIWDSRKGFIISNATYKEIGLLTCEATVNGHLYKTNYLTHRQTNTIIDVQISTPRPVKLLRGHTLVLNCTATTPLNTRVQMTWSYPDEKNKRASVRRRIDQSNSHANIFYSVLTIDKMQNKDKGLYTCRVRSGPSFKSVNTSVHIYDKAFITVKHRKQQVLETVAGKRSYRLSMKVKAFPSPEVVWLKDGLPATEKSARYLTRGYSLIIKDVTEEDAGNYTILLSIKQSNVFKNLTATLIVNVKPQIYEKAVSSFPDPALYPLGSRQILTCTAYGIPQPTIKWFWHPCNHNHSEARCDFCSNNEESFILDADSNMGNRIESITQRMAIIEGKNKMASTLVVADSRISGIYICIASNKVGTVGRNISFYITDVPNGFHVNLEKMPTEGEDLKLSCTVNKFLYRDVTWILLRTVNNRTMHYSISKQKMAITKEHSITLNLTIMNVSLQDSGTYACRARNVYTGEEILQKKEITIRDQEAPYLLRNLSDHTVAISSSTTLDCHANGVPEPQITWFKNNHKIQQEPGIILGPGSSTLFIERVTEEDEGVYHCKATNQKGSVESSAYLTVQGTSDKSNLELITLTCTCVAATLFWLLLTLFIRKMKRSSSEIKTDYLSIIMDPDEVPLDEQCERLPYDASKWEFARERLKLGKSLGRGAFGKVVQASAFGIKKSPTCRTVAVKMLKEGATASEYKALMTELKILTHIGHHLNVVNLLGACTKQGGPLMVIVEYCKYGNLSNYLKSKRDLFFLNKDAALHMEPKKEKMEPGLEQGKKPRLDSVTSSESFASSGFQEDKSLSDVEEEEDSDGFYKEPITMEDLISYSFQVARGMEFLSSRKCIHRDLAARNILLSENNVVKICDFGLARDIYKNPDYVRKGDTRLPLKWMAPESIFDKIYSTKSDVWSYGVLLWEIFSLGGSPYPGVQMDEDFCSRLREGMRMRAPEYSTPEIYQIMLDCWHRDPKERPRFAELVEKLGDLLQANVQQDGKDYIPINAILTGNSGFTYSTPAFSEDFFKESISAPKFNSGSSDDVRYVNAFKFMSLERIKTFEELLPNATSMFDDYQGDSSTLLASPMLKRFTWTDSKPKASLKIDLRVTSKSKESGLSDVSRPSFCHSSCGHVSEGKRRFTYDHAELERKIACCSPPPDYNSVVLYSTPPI

Sequence of VEGFR-1 (P17948 27-656 limits assumed): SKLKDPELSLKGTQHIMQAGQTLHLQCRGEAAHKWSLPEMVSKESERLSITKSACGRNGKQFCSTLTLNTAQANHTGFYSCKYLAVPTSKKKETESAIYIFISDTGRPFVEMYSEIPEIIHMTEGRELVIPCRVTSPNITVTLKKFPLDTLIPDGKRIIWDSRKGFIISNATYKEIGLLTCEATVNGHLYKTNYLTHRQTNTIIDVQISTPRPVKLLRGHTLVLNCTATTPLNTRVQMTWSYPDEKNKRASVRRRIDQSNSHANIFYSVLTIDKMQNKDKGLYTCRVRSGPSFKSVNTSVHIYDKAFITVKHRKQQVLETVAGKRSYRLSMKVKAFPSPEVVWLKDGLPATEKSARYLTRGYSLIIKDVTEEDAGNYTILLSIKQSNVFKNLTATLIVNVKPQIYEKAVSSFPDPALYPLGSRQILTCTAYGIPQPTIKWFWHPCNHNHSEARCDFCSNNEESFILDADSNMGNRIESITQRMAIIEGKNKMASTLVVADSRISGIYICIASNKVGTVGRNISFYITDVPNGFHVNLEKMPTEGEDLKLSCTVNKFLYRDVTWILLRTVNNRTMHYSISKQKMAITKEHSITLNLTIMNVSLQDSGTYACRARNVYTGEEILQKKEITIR

Molecule: N=C(N)NCCC[C@H](NC(=O)[C@H](CCCCN)NC(=O)[C@H](CCC(N)=O)NC(=O)c1ccc(NN)nc1)C(=O)N[C@@H](CCCCN)C(=O)N[C@@H](CCCNC(=N)N)C(=O)N[C@@H](CCCCN)C(=O)N[C@@H](CCCCN)C(=O)N[C@@H](CO)C(=O)N[C@@H](CCCNC(=N)N)C(=O)N[C@@H](CCCCN)C(=O)N[C@@H](CCCCN)C(=O)N[C@@H](Cc1c[nH]cn1)C(=O)O (99mTc complex, metal not drawn) [^99mTc-HYNIC-QKRKRKKSRKKH] ({HYNIC}-QKRKRKKSRKKH-OH)
tissue to tissue ratio at 0.5 h (in vivo): 1.53
tissue to tissue ratio at 1 h (in vivo): 3.42
tissue to tissue ratio at 2 h (in vivo): 4.31
tissue to tissue ratio at 4 h (in vivo): 2.62

Molecule: CC[C@H](C)[C@H](NC(=O)[C@H](Cc1ccc(O)cc1)NC(=O)[C@H](CCCNC(=N)N)NC(=O)[C@H](CO)NC(=O)[C@H](CCCCN)NC(=O)[C@H](CCCCN)NC(=O)[C@H](CCCNC(=N)N)NC(=O)[C@H](CCCCN)NC(=O)[C@H](CCCNC(=N)N)NC(=O)[C@H](CCCCN)NC(=O)[C@H](CCCNC(=N)N)NC(=O)c1ccc(NN)nc1)C(=O)N[C@H](C(=O)N[C@@H](CC(C)C)C(=O)N[C@@H](CO)C(=O)O)C(C)C (99mTc complex, metal not drawn) [^99mTc-HYNIC-RKRKRKKSRYIVLS] ({HYNIC}-RKRKRKKSRYIVLS-OH)
tissue to tissue ratio at 0.5 h (in vivo): 4.05
tissue to tissue ratio at 1 h (in vivo): 4.02
tissue to tissue ratio at 2 h (in vivo): 3.76
tissue to tissue ratio at 4 h (in vivo): 2.86

Molecule: [Na+].[O]=[188Re](=[O])(=[O])[O-] [Na^188ReO4]
distribution of radioactivity on SPECT planar imaging [1]: Large amount of radioactivity was observed in thyroids and stomach
A549 tumor volume growth (A549 xenograft tumors; compared with the saline group, n = 10): inhibited the tumor volume growth
apoptosis in non-necrotic tumor areas (TUNEL staining) (A549 xenograft tumors; end of the therapeutic period): no significant difference in necrosis or apoptosis
necrotic regions in tumor tissue (HE staining) (A549 xenograft tumors; end of the therapeutic period): no significant difference in necrosis or apoptosis
survival of A549 tumor-bearing nude mice (A549 xenograft tumors; n = 10): did not improve the survival duration

binding to VEGFR-1 by Co-IP and reversed Co-IP (VEGFR-1): could bind to VEGFR-1
Molecule: GST-QKRKRKKSRKKH [GST-peptide fusion protein from E. coli BL21 (DE3)]

binding to VEGFR-1 by Co-IP and reversed Co-IP (VEGFR-1): could combined to VEGFR-1
Molecule: GST-RKRKRKKSRYIVLS [GST-peptide fusion protein from E. coli BL21 (DE3)]

IC50 (VEGFR): 79.8 nM
B1: QKRKRKKSRKKH (peptide)
peptide: QKRKRKKSRKKH
notes: core motif RKRKKSR kept; also called non-labeled peptide; source: synthetic peptide (ChinaPeptides Co., Ltd., SPPS, HPLC purified)

IC50 (VEGFR): 464 nM
B2: VEGF_(125-136) (peptide)
peptide: QKRKRKKSRYKS
notes: source: synthetic peptide (ChinaPeptides Co., Ltd., SPPS, HPLC purified)

IC50 (VEGFR): 185 nM
B3: RKRKRKKSRYIVLS (peptide)
peptide: RKRKRKKSRYIVLS
notes: as for B1
